Test results taken from ChEMBL document CHEMBL1138864, “Synthesis of novel caspase inhibitors for characterization of the active caspase proteome in vitro and in vivo” (J Med Chem, 2006).

Assays:
Conditions in all cases: Homo sapiens
[1] = substrate: Cc1cccc(C)c1C(=O)OCC(=O)[C@H](CC(=O)O)NC(=O)[C@H](CCCCNC(=O)CCCCCNC(=O)CCCCC1SC[C@@H]2NC(=O)N[C@H]12)NC(=O)[C@H](CCC(=O)O)NC(=O)OCc1ccccc1
Description: Inhibition of human caspase 6

[2] = substrate: Cc1cccc(C)c1C(=O)OCC(=O)[C@H](CC(=O)O)NC(=O)[C@H](CCCCNC(=O)CCCCCNC(=O)CCCCC1SC[C@@H]2NC(=O)N[C@H]12)NC(=O)[C@H](CCC(=O)O)NC(=O)OCc1ccccc1; remark: listed apart in the source
Description: Inhibition of human caspase 1

[3] = substrate: Cc1cccc(C)c1C(=O)OCC(=O)[C@H](CC(=O)O)NC(=O)[C@H](CCCCNC(=O)CCCCCNC(=O)CCCCC1SC[C@@H]2NC(=O)N[C@H]12)NC(=O)[C@H](CCC(=O)O)NC(=O)OCc1ccccc1; remark: listed apart in the source
Description: Inhibition of human caspase 8

[4] = substrate: Cc1cccc(C)c1C(=O)OCC(=O)[C@H](CC(=O)O)NC(=O)[C@H](CCCCNC(=O)CCCCCNC(=O)CCCCC1SC[C@@H]2NC(=O)N[C@H]12)NC(=O)[C@H](CCC(=O)O)NC(=O)OCc1ccccc1; remark: listed apart in the source
Description: Inhibition of human caspase 4

[5] = substrate: Cc1cccc(C)c1C(=O)OCC(=O)[C@H](CC(=O)O)NC(=O)[C@H](CCCCNC(=O)CCCCCNC(=O)CCCCC1SC[C@@H]2NC(=O)N[C@H]12)NC(=O)[C@H](CCC(=O)O)NC(=O)OCc1ccccc1; remark: listed apart in the source
Description: Inhibition of human caspase 7

[6] = substrate: Cc1cccc(C)c1C(=O)OCC(=O)[C@H](CC(=O)O)NC(=O)[C@H](CCCCNC(=O)CCCCCNC(=O)CCCCC1SC[C@@H]2NC(=O)N[C@H]12)NC(=O)[C@H](CCC(=O)O)NC(=O)OCc1ccccc1; remark: listed apart in the source
Description: Inhibition of human caspase 2

[7] = substrate: Cc1cccc(C)c1C(=O)OCC(=O)[C@H](CC(=O)O)NC(=O)[C@H](CCCCNC(=O)CCCCCNC(=O)CCCCC1SC[C@@H]2NC(=O)N[C@H]12)NC(=O)[C@H](CCC(=O)O)NC(=O)OCc1ccccc1; remark: listed apart in the source
Description: Inhibition of human caspase 5

[8] = substrate: Cc1cccc(C)c1C(=O)OCC(=O)[C@H](CC(=O)O)NC(=O)[C@H](CCCCNC(=O)CCCCCNC(=O)CCCCC1SC[C@@H]2NC(=O)N[C@H]12)NC(=O)[C@H](CCC(=O)O)NC(=O)OCc1ccccc1; remark: listed apart in the source
Description: Inhibition of human caspase 3

B1: Caspase-6 (Homo sapiens), P55212 (protein)
chain: MSSASGLRRGHPAGGEENMTETDAFYKREMFDPAEKYKMDHRRRGIALIFNHERFFWHLTLPERRGTCADRDNLTRRFSDLGFEVKCFNDLKAEELLLKIHEVSTVSHADADCFVCVFLSHGEGNHIYAYDAKIEIQTLTGLFKGDKCHSLVGKPKIFIIQACRGNQHDVPVIPLDVVDNQTEKLDTNITEVDAASVYTLPAGADFLMCYSVAEGYYSHRETVNGSWYIQDLCEMLGKYGSSLEFTELLTLVNRKVSQRRVDFCKDPSAIGKKQVPCFASMLTKKLHFFPKSN
Km [1]: 220 µM

B2: Caspase-1 (Homo sapiens), P29466 (protein)
chain: MADKVLKEKRKLFIRSMGEGTINGLLDELLQTRVLNKEEMEKVKRENATVMDKTRALIDSVIPKGAQACQICITYICEEDSYLAGTLGLSADQTSGNYLNMQDSQGVLSSFPAPQAVQDNPAMPTSSGSEGNVKLCSLEEAQRIWKQKSAEIYPIMDKSSRTRLALIICNEEFDSIPRRTGAEVDITGMTMLLQNLGYSVDVKKNLTASDMTTELEAFAHRPEHKTSDSTFLVFMSHGIREGICGKKHSEQVPDILQLNAIFNMLNTKNCPSLKDKPKVIIIQACRGDSPGVVWFKDSVGVSGNLSLPTTEEFEDDAIKKAHIEKDFIAFCSSTPDNVSWRHPTMGSVFIGRLIEHMQEYACSCDVEEIFRKVRFSFEQPDGRAQMPTTERVTLTRCFYLFPGH
Km [2]: 100 µM

B3: Caspase-8 (Homo sapiens), Q14790 (protein)
chain: MDFSRNLYDIGEQLDSEDLASLKFLSLDYIPQRKQEPIKDALMLFQRLQEKRMLEESNLSFLKELLFRINRLDLLITYLNTRKEEMERELQTPGRAQISAYRVMLYQISEEVSRSELRSFKFLLQEEISKCKLDDDMNLLDIFIEMEKRVILGEGKLDILKRVCAQINKSLLKIINDYEEFSKERSSSLEGSPDEFSNGEELCGVMTISDSPREQDSESQTLDKVYQMKSKPRGYCLIINNHNFAKAREKVPKLHSIRDRNGTHLDAGALTTTFEELHFEIKPHDDCTVEQIYEILKIYQLMDHSNMDCFICCILSHGDKGIIYGTDGQEAPIYELTSQFTGLKCPSLAGKPKVFFIQACQGDNYQKGIPVETDSEEQPYLEMDLSSPQTRYIPDEADFLLGMATVNNCVSYRNPAEGTWYIQSLCQSLRERCPRGDDILTILTEVNYEVSNKDDKKNMGKQMPQPTFTLRKKLVFPSD
Km [3]: 140 µM

B4: Caspase-4 (Homo sapiens), P49662 (protein)
chain: MAEGNHRKKPLKVLESLGKDFLTGVLDNLVEQNVLNWKEEEKKKYYDAKTEDKVRVMADSMQEKQRMAGQMLLQTFFNIDQISPNKKAHPNMEAGPPESGESTDALKLCPHEEFLRLCKERAEEIYPIKERNNRTRLALIICNTEFDHLPPRNGADFDITGMKELLEGLDYSVDVEENLTARDMESALRAFATRPEHKSSDSTFLVLMSHGILEGICGTVHDEKKPDVLLYDTIFQIFNNRNCLSLKDKPKVIIVQACRGANRGELWVRDSPASLEVASSQSSENLEEDAVYKTHVEKDFIAFCSSTPHNVSWRDSTMGSIFITQLITCFQKYSWCCHLEEVFRKVQQSFETPRAKAQMPTIERLSMTRYFYLFPGN
Km [4]: 1100 µM

B5: Caspase-7 (Homo sapiens), P55210 (protein)
chain: MADDQGCIEEQGVEDSANEDSVDAKPDRSSFVPSLFSKKKKNVTMRSIKTTRDRVPTYQYNMNFEKLGKCIIINNKNFDKVTGMGVRNGTDKDAEALFKCFRSLGFDVIVYNDCSCAKMQDLLKKASEEDHTNAACFACILLSHGEENVIYGKDGVTPIKDLTAHFRGDRCKTLLEKPKLFFIQACRGTELDDGIQADSGPINDTDANPRYKIPVEADFLFAYSTVPGYYSWRSPGRGSWFVQALCSILEEHGKDLEIMQILTRVNDRVARHFESQSDDPHFHEKKQIPCVVSMLTKELYFSQ
Km [5]: 230 µM

B6: Caspase-2 (Homo sapiens), P42575 (protein)
chain: MAAPSAGSWSTFQHKELMAADRGRRILGVCGMHPHHQETLKKNRVVLAKQLLLSELLEHLLEKDIITLEMRELIQAKVGSFSQNVELLNLLPKRGPQAFDAFCEALRETKQGHLEDMLLTTLSGLQHVLPPLSCDYDLSLPFPVCESCPLYKKLRLSTDTVEHSLDNKDGPVCLQVKPCTPEFYQTHFQLAYRLQSRPRGLALVLSNVHFTGEKELEFRSGGDVDHSTLVTLFKLLGYDVHVLCDQTAQEMQEKLQNFAQLPAHRVTDSCIVALLSHGVEGAIYGVDGKLLQLQEVFQLFDNANCPSLQNKPKMFFIQACRGDETDRGVDQQDGKNHAGSPGCEESDAGKEKLPKMRLPTRSDMICGYACLKGTAAMRNTKRGSWYIEALAQVFSERACDMHVADMLVKVNALIKDREGYAPGTEFHRCKEMSEYCSTLCRHLYLFPGHPPT
Km [6]: 560 µM

B7: Caspase-5 (Homo sapiens), P51878 (protein)
chain: MAEDSGKKKRRKNFEAMFKGILQSGLDNFVINHMLKNNVAGQTSIQTLVPNTDQKSTSVKKDNHKKKTVKMLEYLGKDVLHGVFNYLAKHDVLTLKEEEKKKYYDTKIEDKALILVDSLRKNRVAHQMFTQTLLNMDQKITSVKPLLQIEAGPPESAESTNILKLCPREEFLRLCKKNHDEIYPIKKREDRRRLALIICNTKFDHLPARNGAHYDIVGMKRLLQGLGYTVVDEKNLTARDMESVLRAFAARPEHKSSDSTFLVLMSHGILEGICGTAHKKKKPDVLLYDTIFQIFNNRNCLSLKDKPKVIIVQACRGEKHGELWVRDSPASLALISSQSSENLEADSVCKIHEEKDFIAFCSSTPHNVSWRDRTRGSIFITELITCFQKYSCCCHLMEIFRKVQKSFEVPQAKAQMPTIERATLTRDFYLFPGN
Km [7]: 2500 µM

B8: Caspase-3 (Homo sapiens), P42574 (protein)
chain: MENTENSVDSKSIKNLEPKIIHGSESMDSGISLDNSYKMDYPEMGLCIIINNKNFHKSTGMTSRSGTDVDAANLRETFRNLKYEVRNKNDLTREEIVELMRDVSKEDHSKRSSFVCVLLSHGEEGIIFGTNGPVDLKKITNFFRGDRCRSLTGKPKLFIIQACRGTELDCGIETDSGVDDDMACHKIPVEADFLYAYSTAPGYYSWRNSKDGSWFIQSLCAMLKQYADKLEFMHILTRVNRKVATEFESFSFDATFHAKKQIPCIVSMLTKELYFYH
Km [8]: 74 µM
